Data: article PMC6598250

Target: unfolded precursor form of maltose binding protein (preMBP) (E. coli)
Assay: ITC; 120 uM SecB or SecB_(T10A) titrated into 20 uM preMBP; 25 °C; KPB buffer pH 7.4, 100 mM; MicroCal PEAQ-ITC; triplicate

Row | Kd | dH | stoichiometry N | Substance
1 | 5.2 µM | -8.32 kJ/mol | 4.99 | SecB_(T10A) (from UniProt P0AG86 1-153) (natural protein)
2 | 61.7 µM | -6.18 kJ/mol | 3.08 | SecB chaperone, wild type (from UniProt P0AG86 1-153) (natural protein)
